The source of these data is patent publication CN111732654A (WUHAN INST OF BIOLOGICAL PRODUCTS CO LTD, dated 2020).

In general, EC50 refers to the concentration giving half of the maximal effect.

For assay [1], the target named is SARS-CoV-2刺突S1-His重组蛋白 (Sino公司，货号:40591-V08H) (SARS-CoV-2 (2019-nCoV), UniProt P0DTC2 16-685).
The target in assay [2] is SARS-CoV-2刺突蛋白S1的RBD结构域重组蛋白 (Sino公司，货号40592-V05H) (SARS-CoV-2 (2019-nCoV), UniProt P0DTC2 319-541).

B1: 单克隆抗体1E10 (人源抗SARS-CoV-2抗体1E10) (antibody, V domains shown)
VH: EVQLVQSGAEVKKPGSSVKVSCKASGGTFSSYAISWVRQAPGQGLEWMGRIIPILGIANYAQKFQGRVTITADKSTSTAYMELSSLRSEDTAVYYCAREVSDFDWLYRSHYGMDVWGQGTTVTVSS
VL: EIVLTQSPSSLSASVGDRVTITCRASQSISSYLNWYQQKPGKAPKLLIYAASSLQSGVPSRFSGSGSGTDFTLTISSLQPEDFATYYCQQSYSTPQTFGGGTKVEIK
In the case of B1, the figures for the EC50 in assay [1] and in assay [2] were 0.029 nM and 0.044 nM, respectively.
